Data set [1] can be described thus: in vivo. Conditions: male, Lewis, rat, iv, 50 uCi, total radioactivity. More on the design: species or system Lewis rats. The method, then: (§1) These studies were performed to evaluate the biodistribution and imaging potential of these compounds in Lewis rats bearing CA20948 rat pancreatic tumor implants. For each study, six (6) male Lewis rats bearing CA20948 tumor implants were anesthetized with Metofane gas and injected via the jugular vein with 200 μL (using the compounds of Example 2) or 50 μL (using the compound of Example 3) of test article containing ˜50 μCi of activity. The animals were imaged for 100K counts under a gamma camera at 30 minute (n=3) and 4 hours (n=3) post injection after which time they were sacrificed and the following tissues removed for assay: blood, liver, kidneys, muscle, spleen, pancreas, small intestines, adrenals and tumor. The data are presented as % injected dose per gram and % injected dose per whole organ. The comparative data are also represented graphically.

Data set [2] deals with CA20948 rat pancreatic tumor implants. In words: in vivo. More on the design: species or system Lewis rats. The method, then:
as §1

The target in data set [3] is T1, SST-2 Receptors (Rattus norvegicus, UniProt P30680).
T1 construct: from tissue; host or cells: Lewis rats bearing CA20948 tumor implants
The data set can be described thus: in vivo. To be noted: 350 μg cold Y3-Octreotate 30 minutes prior; three hours post injection. It counts as in vivo, Lewis rats. On the procedure:
(§2) Two rats for each group were used. Group 1 received 500 μL PBS administered subcutaneously in the nape of the neck 30 minutes prior to the injection of [^99mTc(CO)3(DTPA′-Y^3-Octreotate)]. Group 2 received 350 μg Y^3-Octreotate in 500 μL phosphate buffered saline (PBS) administered subcutaneously in the nape of the neck 30 minutes prior to the injection of [^99mTc(CO)3(DTPA′-Y^3-Octreotate)].
(§3) 30 minutes after injection of the cold peptide or saline control, the animals were anesthetized with Metofane gas and injected with 50 μL (50 μCi) of [^99mTc(CO)3(DTPA′-Y^3-Octreotate)]. At three hours post injection the animals were sacrificed, blood samples taken, and then the rats were scintigraphed for 100K counts (FIG. 3). At the conclusion of the scintigraphy, the animals were necropsied, and the following tissues removed for radioassay: liver, kidneys, muscle, spleen, heart, pancreas, adrenals, and tumor. The data were calculated as % injected dose per gram and % injected dose per whole organ.

Data set [4] in a line: in vivo. It counts as in vivo, Lewis rats. To be noted: Lewis, rat, in vivo, total radioactivity. On the procedure:
as §2, §3

On the set-up of data set [5]: species or system Lewis rats. To be noted: rat, in vivo. The method, then:
During the general biodistribution studies, one additional animal per study was ligated to prevent urination prior to injection. The animal was kept anesthetized for 3 hours post injection, and was subsequently sacrificed, urine removed. The volume and activity of the urine was measured, and a sample was analyzed by HPLC using the method described above.

T1 sequence (P30680 whole entry): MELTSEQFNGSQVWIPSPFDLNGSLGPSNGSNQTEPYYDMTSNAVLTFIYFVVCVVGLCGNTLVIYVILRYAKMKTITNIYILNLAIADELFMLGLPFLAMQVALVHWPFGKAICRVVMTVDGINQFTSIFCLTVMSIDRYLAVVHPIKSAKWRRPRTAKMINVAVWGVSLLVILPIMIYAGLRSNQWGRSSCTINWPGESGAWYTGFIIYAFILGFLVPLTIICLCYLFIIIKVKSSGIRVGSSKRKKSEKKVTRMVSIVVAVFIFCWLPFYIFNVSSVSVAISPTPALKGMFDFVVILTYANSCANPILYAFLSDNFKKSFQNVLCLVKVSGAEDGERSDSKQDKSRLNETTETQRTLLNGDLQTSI

On to `C[C@@H](O)[C@H](NC(=O)[C@@H]1CSSC[C@H](NC(=O)[C@@H](Cc2ccccc2)NC(=O)CN(CCN(CCN(CC(=O)O)CC(=O)O)CC(=O)O)CC(=O)O)C(=O)N[C@@H](Cc2ccc(O)cc2)C(=O)N[C@H](Cc2c[nH]c3ccccc23)C(=O)N[C@@H](CCCCN)C(=O)N[C@@H]([C@@H](C)O)C(=O)N1)C(=O)O` [MP-2138, Tc-99m(CO)3-n-DTPA-Tyr-3-Octreotate, metal not drawn], for which the tissue uptake at 0.5 h is 0.735 ± 0.027 %ID/g in data set [1] (Blood % ID/g); 5.282 ± 0.014 %ID/g in data set [1] (Kidney % ID/g); 0.567 ± 0.015 %ID/g in data set [1] (Liver % ID/g); 1.56 ± 0.11 %ID/g in data set [1] (Pancreas % ID/g); 0.847 ± 0.078 %ID/g in data set [1] (Tumor % ID/g). Moreover, the tissue uptake at 4 h came out at 0.218 ± 0.01 %ID/g in data set [1] (Blood % ID/g); 5.703 ± 0.052 %ID/g in data set [1] (Kidney % ID/g); 0.516 ± 0.034 %ID/g in data set [1] (Liver % ID/g); 1.76 ± 0.089 %ID/g in data set [1] (Pancreas % ID/g); 0.822 ± 0.13 %ID/g in data set [1] (Tumor % ID/g). Besides, the tissue to tissue ratio at 0.5 h in data set [1] (Tumor/Blood) was determined as 1.1; in data set [1] (Tumor/Kidney), 0.14; in data set [1] (Tumor/Liver) it was 1.3. The tissue to tissue ratio at 4 h is 3.7 in data set [1] (Tumor/Blood), 0.14 in data set [1] (Tumor/Kidney) and 1.6 in data set [1] (Tumor/Liver).
On to `C[C@@H](O)[C@H](NC(=O)[C@@H]1CSSC[C@H](NC(=O)[C@@H](Cc2ccccc2)NC(=O)CC(C(=O)O)N(CCN(CC(=O)O)CC(=O)O)CCN(CC(=O)O)CC(=O)O)C(=O)N[C@@H](Cc2ccc(O)cc2)C(=O)N[C@H](Cc2c[nH]c3ccccc23)C(=O)N[C@@H](CCCCN)C(=O)N[C@@H]([C@@H](C)O)C(=O)N1)C(=O)O` (stereo partly drawn) [MP-2148, Tc-99m(CO)3-DTPA′-Tyr-3-Octreotate, metal not drawn], for which the “Amount of activity in the liver and GI tract compared to [99mTc(CO)3(His-Y3-Octreotate)]” value in data set [2] is reported as “significantly less”. The “Biodistribution characteristics vs iso-DTPA-Y3-Octreotate and n-DTPA-Y3-Octreotate” value in data set [2] is recorded as “better biodistribution characteristics”. For the same compound, the “Hepatobiliary uptake and clearance compared to [99mTc(CO)3(His-Y3-Octreotate)]” value in data set [2] is “less hepatobiliary uptake and clearance”. Also, the tissue uptake at 0.5 h in data set [1] (Blood % ID/g) is 0.471 ± 0.035 %ID/g; in data set [1] (Kidney % ID/g) it was 2.14 ± 0.12 %ID/g; in data set [1] (Liver % ID/g) it was 0.494 ± 0.011 %ID/g; in data set [1] (Pancreas % ID/g), 1.15 ± 0.032 %ID/g; in data set [1] (Tumor % ID/g), 0.793 ± 0.041 %ID/g. Besides, the tissue uptake at 4 h in data set [1] (Blood % ID/g) came to 0.114 ± 0.005 %ID/g; in data set [1] (Blood (% ID/g at 4 hours p.i.)), 0.083 %ID/g; in data set [1] (Kidney % ID/g), 3.14 ± 0.08 %ID/g; in data set [1] (Kidney (% ID/g at 4 hours p.i.)), 3.27 %ID/g; in data set [1] (Liver % ID/g), 0.363 ± 0.022 %ID/g; in data set [1] (Liver (% ID/g at 4 hours p.i.)), 0.19 %ID/g. For the same compound, the tissue uptake at 4 h stood at 0.956 ± 0.054 %ID/g in data set [1] (Pancreas % ID/g), 0.99 %ID/g in data set [1] (Pancreas (% ID/g at 4 hours p.i.)), 0.769 ± 0.069 %ID/g in data set [1] (Tumor % ID/g) and 1.06 %ID/g in data set [1] (Tumor (% ID/g at 4 hours p.i.)). Moreover, the values for the tissue to tissue ratio at 0.5 h in data set [1] (Tumor/Blood), in data set [1] (Tumor/Kidney) and in data set [1] (Tumor/Liver) were 1.7, 0.37 and 1.6, respectively. Further, the tissue to tissue ratio at 4 h came to 6.7 in data set [1] (Tumor/Blood), 0.25 in data set [1] (Tumor/Kidney) and 2.1 in data set [1] (Tumor/Liver). In addition, the “Reduction of uptake in the adrenals in somatostatin receptor-blocked animals” value in data set [3] is on record as 81%. Moreover, the “Reduction of uptake in the pancreas in somatostatin receptor-blocked animals” value in data set [3] was 95%. Further, the “Reduction of uptake in the tumor in somatostatin receptor-blocked animals” value in data set [3] was 90%. Also, the tissue uptake dose at 3 h in data set [4] (50 uCi, Adrenals % ID/organ) was found to be 0.042 %ID; in data set [4] (50 uCi, Blood % ID/organ), 1.44 %ID; in data set [4] (50 uCi, Heart % ID/organ), 0.049 %ID; in data set [4] (50 uCi, Kidneys % ID/organ), 6.82 %ID; in data set [4] (50 uCi, Liver % ID/organ) it was 2.35 %ID; in data set [4] (50 uCi, Muscle % ID/organ), 6.6 %ID. Further, the tissue uptake dose at 3 h in data set [4] (50 uCi, Pancreas % ID/organ) was 0.762 %ID; in data set [4] (50 uCi, Spleen % ID/organ), 0.044 %ID; in data set [4] (50 uCi, Tumor % ID/organ) it was 5.18 %ID; in data set [4] (Adrenals % ID/organ), 0.008 %ID; in data set [4] (Blood % ID/organ), 1.59 %ID; in data set [4] (Heart % ID/organ), 0.057 %ID. For the same compound, the tissue uptake dose at 3 h in data set [4] (Kidneys % ID/organ) turned out to be 6.24 %ID; in data set [4] (Liver % ID/organ) it was 2.61 %ID; in data set [4] (Muscle % ID/organ) it was 6.93 %ID; in data set [4] (Pancreas % ID/organ), 0.052 %ID; in data set [4] (Spleen % ID/organ) it was 0.042 %ID; in data set [4] (Tumor % ID/organ) it was 0.493 %ID. Further, the tissue uptake at 3 h in data set [4] (50 uCi, Blood % ID/g) amounted to 0.115 %ID/g; in data set [4] (50 uCi, Heart % ID/g), 0.062 %ID/g; in data set [4] (50 uCi, Kidneys % ID/g), 2.98 %ID/g; in data set [4] (50 uCi, Liver % ID/g), 0.236 %ID/g; in data set [4] (50 uCi, Muscle % ID/g), 0.058 %ID/g; in data set [4] (50 uCi, Pancreas % ID/g), 0.916 %ID/g. In addition, the tissue uptake at 3 h in data set [4] (50 uCi, Spleen % ID/g) stood at 0.081 %ID/g; in data set [4] (50 uCi, Tumor % ID/g) it was 1.11 %ID/g. The “Activity of Urine” value in data set [5] is 10.4 μCi. The “Metabolism: state of compound in urine by HPLC analysis” value in data set [5] is “essentially intact”. Moreover, in data set [5], the “Volume of Urine” value worked out at 1.5 mL.
On to “Tc-99m(CO)3-His-Tyr-3-Octreotate [MP-2377, reference compound]”, for which, in data set [2], the “Blood (% ID/g at 4 hours p.i.)” value was 0.03 % ID/g, the “Kidney (% ID/g at 4 hours p.i.)” value is on record as 1.64 % ID/g, the “Liver (% ID/g at 4 hours p.i.)” value is recorded as 0.28 % ID/g and the “Pancreas (% ID/g at 4 hours p.i.)” value worked out at 2.67 % ID/g. The “Tumor (% ID/g at 4 hours p.i.)” value in data set [2] was found to be 1.00 % ID/g. For the same compound, in data set [5], the “Activity of Urine” value amounted to 5.8 μCi, the “Metabolism: state of compound in urine by HPLC analysis” value is recorded as “essentially intact” and the “Volume of Urine” value was 1.5 mL.
In turn, “Tc-99m(CO)3-iso-DTPA-Tyr-3-Octreotate [MP-2423]” registered a Tumor/Liver in data set [2] of 3.

Broadly, the tissue uptake is the share of the injected amount in each gram of the tissue.

The values are drawn from patent publication US6926883B1, “Group (VII) transition-metal complexes with multidentate aminopolycarboxylate ligands and a kit for producing them” (Mallinckrodt Inc, priority 1999, dated 2005).
